Consider eight molecules from US20250042994A1 (HAINAN SIMCERE ZAIMING PHARMACEUTICAL, published 2025).

Assay [1] deals with T1, Human CD19-his protein (human, UniProt P15391 20-291).
T1 construct: bought protein; also called human CD19 protein; recombinant human CD19-His; not shown: His tag
T1 sequence (looked up): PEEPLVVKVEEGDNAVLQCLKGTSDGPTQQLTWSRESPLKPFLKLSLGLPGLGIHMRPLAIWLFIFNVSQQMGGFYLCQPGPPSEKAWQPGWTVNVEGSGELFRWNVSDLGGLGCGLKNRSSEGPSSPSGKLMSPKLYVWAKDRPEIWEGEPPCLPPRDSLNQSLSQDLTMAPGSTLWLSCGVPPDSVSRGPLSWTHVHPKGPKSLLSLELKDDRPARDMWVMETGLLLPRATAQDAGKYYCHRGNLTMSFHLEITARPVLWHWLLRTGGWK
Put plainly: ELISA, antibody at 1.00 nM. A general note: ELISA stands for enzyme-linked immunosorbent assay.

In a further assay the target is T2, murine CD19 protein (murine, UniProt P25918 17-287, limits assumed).
T2 construct: bought protein; also called commercial murine CD19
T2 sequence (looked up): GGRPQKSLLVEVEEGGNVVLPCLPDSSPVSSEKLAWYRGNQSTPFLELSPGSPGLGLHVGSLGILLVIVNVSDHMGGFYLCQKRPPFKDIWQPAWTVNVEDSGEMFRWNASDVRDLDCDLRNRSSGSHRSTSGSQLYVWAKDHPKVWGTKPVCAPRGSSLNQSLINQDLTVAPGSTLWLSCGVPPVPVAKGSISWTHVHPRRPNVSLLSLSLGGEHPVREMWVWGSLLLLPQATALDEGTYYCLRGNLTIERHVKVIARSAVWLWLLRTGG
Put plainly: ELISA, coated murine CD19. A digest of the protocol: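 Plates coated overnight at 4° C with recombinant murine or monkey CD19 and blocked with 2% BSA. Chimeric antibodies, serially diluted from 100 nM, bound for 2 h at 37° C. TMB development for 10 min with OD450 read-out.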

For assay [2], the target named is T1, Human CD19-his protein. Briefly: ELISA, antibody at 0.0001 nM.
The target in assay [3] is T1, Human CD19-his protein. Put plainly: ELISA, antibody at 0.001 nM.
Assay [4] has as its target T1, Human CD19-his protein. Briefly: ELISA, antibody at 10 nM.
The target in assay [5] is T3, human CD19 exon1-3-his protein (human, UniProt P15391 20-186, limits assumed).
T3 construct: made in HEK293E cells; also called membrane-distal end; not shown: His tag
T3 sequence (looked up): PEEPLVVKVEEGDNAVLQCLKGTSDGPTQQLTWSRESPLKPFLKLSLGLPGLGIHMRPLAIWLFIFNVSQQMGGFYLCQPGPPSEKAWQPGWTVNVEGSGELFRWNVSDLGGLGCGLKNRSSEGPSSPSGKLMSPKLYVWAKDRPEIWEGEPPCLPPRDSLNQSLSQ
Put plainly: ELISA, coated at 2 ug/mL.

Assay [6] concerns the target T1, Human CD19-his protein. Briefly: ELISA, antibody at 100 nM.
Assay [7] has as its target T1, Human CD19-his protein. Put plainly: ELISA on coated human CD19-His. The protocol:
Human CD19-his protein (purchased from ACROBiosystems, catalog number: CD9-H52H2) was diluted with PBS to a final concentration of 4 μg/mL, and then added to a 96-well ELISA plate at 100 μl/well. The plate was sealed with a plastic film and incubated overnight at 4° C., the plate was washed 2 times with PBS the next day, and then a blocking solution [PBS+2% (w/w) BSA] was added for blocking at room temperature for 2 h. The blocking solution was poured off, and 100 nM gradiently diluted CD19 chimeric antibody or control antibody was added at 50 μl/well. After incubation at 37° C. for 2 h, the plate was washed 3 times with PBS. […] TMB substrate was added at 50 μl/well, and incubated at room temperature for 10 min, and then a stop solution (1.0 N HCl) was added at 50 μl/well. The OD450 nm values were read by an ELISA microplate reader (Multimode Plate Reader, EnSight, purchased from Perkin Elmer).

The target in assay [8] is T1, Human CD19-his protein. Put plainly: ELISA, antibody at 0.01 nM.
Assay [9] has as its target T1, Human CD19-his protein. Briefly: ELISA, antibody at 0.10 nM.

B1: F4.191.1 (antibody, human IgG1, V domains shown)
VH: QVQLQQPGAELVRPGASVKLSCKASGYTFTSYWINWVKQRPGQGLEWIGNIHPSDSYTNYNQKFKDKATLTVDKSSSTAYMQFSSPTSEDSAVYYCTREDYYYGSNYDAMDYWGQGTSVTVSS
VL: DIVMTQSHKFMSTSVGDRVNITCKASQDVGSSVAWYQQKPGQSPKLLIYWASTRHAGVPDRFTGSGSGADFTLTISNVQSEDLADYFCQQYSTYPLTFGAGTKLELK
notes: human-murine chimeric antibody, human IgG1
In general, EC50 (read off the curve) refers to the concentration needed to bring the measured effect to its halfway point. B1: the OD450 in the assay with Human CD19-his protein [1] was 1.42; with Human CD19-his protein [2], 0.05; in the assay with Human CD19-his protein [3] it was 0.06; with Human CD19-his protein [4] it was 1.43; in the assay with Human CD19-his protein [6], 1.69; in the assay with Human CD19-his protein [8] it was 0.13. Besides, the OD450 in the assay with Human CD19-his protein [9] is 0.57. Also, the binding result (in the assay with murine CD19 protein; in assay [5]) was “no binding” each time. The “EC50 (read off the curve)” value with Human CD19-his protein [7] is ~0.2 nM.

B2: F4.125.12 (antibody, human IgG1, V domains shown)
VH: EVKLVESGGGLVQPGGSLKLSCAASGFTFSTYTMSWVRQTPEKRLEWVAFISSGGGHINYPDTVKGRFTISRDNAKNTLYLQMSSLKSEDTAMYYCARHSYWFFDVWGAGTTVTVSS
VL: DVQITQSPSYLAASPGETITINCRASKNIDTYLAWYQEKPGKTNKLLIYSGSTLQSGIPSRFRGGGSGTDFTLTICSLEPEDFAMYYCQQHNEYPLTFGAGTKLELK
notes: as for B1
As to B2, the OD450 worked out at 1.68 in the assay with Human CD19-his protein [1]; 0.06 with Human CD19-his protein [2]; 0.09 in the assay with Human CD19-his protein [3]; 1.54 with Human CD19-his protein [4]; 1.84 in the assay with Human CD19-his protein [6]; 0.23 with Human CD19-his protein [8]. Besides, the OD450 with Human CD19-his protein [9] turned out to be 1.07. In addition, the binding result (with murine CD19 protein; in assay [5]) was “no binding” in each case. Besides, the “EC50 (read off the curve)” value in the assay with Human CD19-his protein [7] was ~0.06 nM.

B3: F4.107.12 (antibody, human IgG1, V domains shown)
VH: EVQLQQSGPELVKPGASVKMSCKASGYTFTSYVLHWVRQKPGQGLEWIGYFNPYNDGTEYNEKFKGKAILTSDKSSSTAYMELNSLTSEDSAVYYCVGGTYYYGSSYPFAYWGQGTLVTVST
VL: DVVMTQISLSLPVSLGDQASISCRSSQSLIHSNGNTYLQWYLQKPGQSPKLLIYKVSNRLSGVPDRFSGSGSGTDFTLKISRVEAEDLGVYFCSQSTHVPYTFGGGTKLEIK
notes: as for B1
As for B3, the OD450 with Human CD19-his protein [1] amounted to 1.93; with Human CD19-his protein [2], 0.05; in the assay with Human CD19-his protein [3], 0.08; with Human CD19-his protein [4], 1.75; with Human CD19-his protein [6] it was 1.77; with Human CD19-his protein [8], 0.27. Further, the OD450 in the assay with Human CD19-his protein [9] was determined as 1.33. The binding result (in the assay with murine CD19 protein; in assay [5]) was “no binding” each time. Also, the “EC50 (read off the curve)” value in the assay with Human CD19-his protein [7] was ~0.04 nM.

B4: F5.3.6 (antibody, human IgG1, V domains shown)
VH: DVQLQESGPGLVKPSQSQSLTCSVTGYSITSGYYWNWIRQFPGNKLEWMGYISYDGSNNYNPSLKNRISITRDTSKNQFFLKLNSVTTEDTVTYYCARAPLTGDRYWYFDVWGTGTTVTVSS
VL: DIVLTQSPASLAVSLGQRATISCRASQSVSTSSYSYMHWYQQKPGQTPKLLIKYASNLKSGVPARFSGSGSGTDFTLNIHPVEEEDTATYYCQHSWEIPPTFGGGTKLEIK
notes: as for B1
Regarding B4, the OD450 with Human CD19-his protein [1] was determined as 1.11; in the assay with Human CD19-his protein [2], 0.05; in the assay with Human CD19-his protein [3], 0.06; in the assay with Human CD19-his protein [4] it was 1.56; with Human CD19-his protein [6] it was 1.49; with Human CD19-his protein [8], 0.09. For the same molecule, the OD450 with Human CD19-his protein [9] stood at 0.33. The binding result (with murine CD19 protein; in [5]) was “no binding” throughout. Moreover, in the assay with Human CD19-his protein [7], the “EC50 (read off the curve)” value was ~0.4 nM.

B5: F5.2.9 (antibody, human IgG1, V domains shown)
VH: QVTLKESGPGILQPSQTLSLTCSFSGFSLSTFGLGVGWVRQPSGKGLEWLAHIWWDDDKYYNPALKSRVTVSKETSKNQVFFKIANVDTADSATYYCARLSRGLRRDVVYAMDHWGQGTSVTVSS
VL: DIQMTQTTSSLSASLGDRVTISCRASQDISNYLNWYQQKPDGSVKLLISYVSRLQSGVPSRFRGSGSGTDYSLTISNLDQEDIATYFCQQGIAFPYTFGGGTKLDIK
notes: as for B1
With B5, the OD450 with Human CD19-his protein [1] was 1.55; with Human CD19-his protein [2] it was 0.08; with Human CD19-his protein [3], 0.11; in the assay with Human CD19-his protein [4], 1.76; with Human CD19-his protein [6], 1.56; in the assay with Human CD19-his protein [8], 0.29. The molecule also showed an OD450 with Human CD19-his protein [9] of 1.05. Besides, the binding result (in the assay with murine CD19 protein; in assay [5]) was “no binding” in each case. Moreover, the “EC50 (read off the curve)” value with Human CD19-his protein [7] was ~0.06 nM.

B6: F4.180.1 (antibody, human IgG1, V domains shown)
VH: EVQLQQSAPELVKPGASVKMSCKTSGYTFTENIIHWVKQTHGKSLEWIGGINPDNGGTSYHQKFKGRTTLTIDKSSSTAYMELRSLTSDDSAVFFCARQAPLYWYFDIWGAGTTVTVSS
VL: DIVLTQSPASLAVSLGQRATISCRASESVDSYGNSLMHWFQQKPGQPPRLLIYRASNLESGIPARFSGSGSRTDFTLTITPVEADDVATYYCQQSNEDPWTFGGGTKLEIK
notes: as for B1
Turning to B6, the OD450 was 1.63 in the assay with Human CD19-his protein [1]; 0.05 in the assay with Human CD19-his protein [2]; 0.06 with Human CD19-his protein [3]; 1.92 with Human CD19-his protein [4]; 2.02 with Human CD19-his protein [6]; 0.12 in the assay with Human CD19-his protein [8]. In the assay with Human CD19-his protein [9], this molecule had an OD450 of 0.76. Besides, the binding result (with murine CD19 protein; in assay [5]) was “no binding” in each case. Further, the “EC50 (read off the curve)” value with Human CD19-his protein [7] is ~0.2 nM.

B7: F4.145.9 (antibody, human IgG1, V domains shown)
VH: EVQLVESGGGLVKPGGSLKLSCAAAGFAFSSYDMSWVRQIPEKRLEWVAYISAGGGNTYFLDTVKGRFTISRDHAKNTLSLQMSSLKSEDTAMYFCVRHGDYYRYFYAMDYWGQGSSVTVSS
VL: DIVMTQSHKFMSTSVGDRVSITCKASQDVGTAVAWSQQKPGQSPKLLIYWASTRHTGVPDRFTGSGSGTDFTLTISNVQSEDLADYFCQQFVTYPYTFGGGTKLEIK
notes: as for B1
On to B7, for which the OD450 with Human CD19-his protein [1] was found to be 1.79; with Human CD19-his protein [2], 0.06; with Human CD19-his protein [3], 0.08; with Human CD19-his protein [4], 1.73; with Human CD19-his protein [6], 1.84; with Human CD19-his protein [8], 0.27. Further, the OD450 in the assay with Human CD19-his protein [9] is 1.11. The binding result (with murine CD19 protein; in [5]) was “no binding” in each case. In addition, the “EC50 (read off the curve)” value in the assay with Human CD19-his protein [7] was ~0.06 nM.

B8: F4.152.7 (antibody, human IgG1, V domains shown)
VH: QVQLQQPGAELVKPGASVKLSCKASGYTFTSYWMHWVKQRPGQGLEWIGEIDPSDSYTNYNQKFKGKATLTADKSSSTAYMQLSGLTSEDSAVYHCARGGDYDGYYVMDYWGQGTSVTVSS
VL: EIVLTQSPTTMAASPGEKITITCSASSSISSNYLHWYQQKPGFSPKLLIYRTSNLASGVPARFSGSGSGTSYSLTIGTMEADDVATYYCQQGSYIPRIFTFGSGTKLEIK
notes: as for B1
As to B8, the OD450 in the assay with Human CD19-his protein [1] was found to be 2.12; with Human CD19-his protein [2], 0.05; with Human CD19-his protein [3] it was 0.07; in the assay with Human CD19-his protein [4] it was 2.01; in the assay with Human CD19-his protein [6] it was 2.07; with Human CD19-his protein [8], 0.26. The OD450 with Human CD19-his protein [9] worked out at 1.28. For the same molecule, the binding result (with murine CD19 protein; in [5]) was “no binding” throughout. The concentration for a half-maximal effect (EC50 (read off the curve)) with Human CD19-his protein [7] is ~0.06 nM.
